Source: the nanobody polyreactivity screen of Harvey et al. (2022)

Test: yeast display, Sf9 membrane polyspecificity reagent, FACS + sequencing; frameworks hold sequencing errors
Procedure, shortened: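 Genes from sorted yeast were amplified by colony PCR, read by MiSeq 2 × 250 sequencing and filtered on CDR length. These cells carried a synthetic nanobody library in Saccharomyces cerevisiae BJ5465 and were sorted by FACS into low and high (top ~1%) gates on anti-HA and streptavidin fluorescence. Polyreactivity is labelled according to the gate of origin.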

| Sequence | polyreactivity (PSR sort gate) |
| --- | --- |
| QVQLVESGGGLVQAGGSLRLSCAASGRIFYVNAMGWYRQAPGKERELVAAIDVNDGITYYADSVKGRFTISRDNAKNTVYLQMNSLKPEDTAVYYCAAETLYWNDIIWDVEYWGQGTQVTVSS | high polyreactivity |
| QVQLVESGGGLVQAGGSLRLSCAPSGIIFIRYAMGWYRQAPGKERELVAAISWRGGSTYYADSVKGRFTISRDNAKNTVYLQMNSLKPEDTAVYYCAAGYFSYRRYDYWGQGTQVTVSS | high polyreactivity |
| QVQLVESGGGLVQAAGSLRLSCAASGSTFADNAMGWYRQAPGKEREMVAANSRRGGSTYYADSVKGRFTISLDNAKNTVYLQMNSLKPEDTAVYYCAKPSGLVVNQYRAGMEYWGQGTQVTVSS | high polyreactivity |
| QVQLVESGGGLVQAGGSLRLSCAASGRTFLLYAMGWYRQAPGKERELVAAISRGGGSTFYADTVKGRFTLSRDNAKNTVYLQRNSLKPDDTAVYYCAAYGRYYYIYDYCGQGTQVTVSS | high polyreactivity |
| QVQLVESGGGLVQAGGSLRLSCAASGIIFKPYAMGWYRPAPGKERQLVAAITVNGGTTYYADSVKGRFTISRDNAKKTVNVQMNSLKPEDPAFYYCNRGRPGGPSWYHYDYWGQGTEVTVSS | high polyreactivity |
| QVQLVESGGGLVQAGGSLRLSCAASGRIFNIYAMGWYRQAPGKERELVAAISGSGGRTSYADSVKGRFTISRDNAKNTVYLQMNSLKPEDTAVYYCAADYSYYTSFRYDYWGQGTQVTVSS | low polyreactivity |
| QVQLVESGGGLVQAGGSLRLTCAASGIIYYVYAMVWYRQAPGKERELVAAITSGGTTYYADSVKGRFTISRDNAKNTVYLQMNSLKPEDTAVYYCAAARGGGRTYGYWGQGTQVTVSS | high polyreactivity |
| QVQLVESGGGLVQAGGSLRLSCAASGITFEGYSMGWYRQAPGKERELVAAIRSSGTSTYYADSVKGRFTISRDNAKNTVYLQMNSLKPEDTAVYYCNRARSSSRYDYWGQGTQVTVSS | low polyreactivity |
| QVQLVESGGGLVQAGGSLRLSCAASGRIFFPYDMGWYRQAPGKERELVAAITNSGGRTYYADSVKGRFTISRDNAKNTVYLQMNSLKPEDTAVYYCAARYGSGGDYWGQGTQVTVSS | low polyreactivity |
| QVQLVESGGGLVQARGSLRLSCASSGSTFSRYAMGWYRQAPGKERELVAGISWSGGNTYYADSVKGRFTISRDNAKNTVYLQMNSLKPEDTAVYYCAADFLDYWGVYGWAEYEYWGQGTQVTVSS | low polyreactivity |
| QVQLEESGGGLVQAGGSLRLSCAASGITFSGNAMGWYRQAPGKERELVATISQSGGRTYYADSVKGRFTISRDNAKNTVYLQMNSLKPEDTAVYYCARRRLRYTDRGYYYWGQGTQVTVSS | high polyreactivity |
| QVQLVESGGGLVQAGGSLRLSCAASGSIFSRNTLGWYRQAPGKERELVAAITRGGSTDYADSVKGRFTISRDNAKNTVYLQMNSLKPEDTAVYYCAKKTPGWGKFDYWGQGTQVTVSS | low polyreactivity |
| QVQLVESGGGLVHAGGSLRLSFAASGRTFVNNAMGWYRQAPGKERELVAAITGSCGSTYYADSVKGRFTISRDNAKNTFYLQMNSLKPEYTAVYYCAKRHVGSRYLFDYWGQGTQVTVSS | low polyreactivity |
| QVQLVESGRGLVQAGGSLRLSCPASGRTFSTNAMGWYRQAPGKEREFVAVISSSSGSTYYADSVKGRFTISRDNAKNTVYLQMNSLKPEDTAVYYCAAGYRYRVSYSVYEFYYWGQGTQVTVSS | high polyreactivity |
| QVQLVESGGGLLQAGGSLRLSCAASGFIFRRNAMGWYIQAPGKEREFVASISKSSDLTYYADSVKGRFRISRDNAKNTVYLQMNSLKPEVTAVYYCAAKVRQWRHGSYSSQYDYWGQGTQVTVSS | high polyreactivity |
| QVQLVESGGGLVQAGGSLRLSCAASGFIFLGNAMGWYRQAPGKERELVAAISSGGSTYADSVKGRFTISRDNAKNTVYLQMNSLKPEDTAVYYCNTEDYTQYEPGYYPPNYYWGQGTQVTVSS | low polyreactivity |
| QVQLVESGGGLVQAGGSLRLSCAASGYTFPSNAMGWYREAPGKERELVAAISSGARTNYADSVKGRFTISRDNAKNTVYLQMNSLKPEDTAVYYCNKAAASFRHFYGYGYWGQGTQVTVSS | low polyreactivity |
| QVHLVESGGGLVQAGGSLRLSCAASGSIFGPNAMGWYRPAPGKERELVAAINGGTGTFYADSVKGRFTISRDNAKHTVYLQMNSLKPEDTAVYYCAADYGTHYFVRYYYWGQGTEVTVSS | high polyreactivity |
| QVQLVESGGGLVQAGGSLRLSCAASGRTFRTYAMGWYRQAPGKERELVAAISRTGRTNYADSVKGRFTISRDNAKNTVYLQMNSLKPEDTAVYYCAADRVGWSGYRGDYWGQGTQVTVSS | high polyreactivity |
| QVQLVESGGGLVQAGGSLRLSCAASGSTFFHNAMGWYRQAPGKEREWVAAINWNGGSTYYADSVKGRFTISRDNAKNTVYLQMNSLKPEDTAVYYCAADIYTYLGAYYIGYYWGQGTQVTVSS | low polyreactivity |
| QVQLVESGGGLVQAGGSLRLSCAASGFTFGGNVMGWYRQAPGKERELVAAIRGTGGNTYYADSVKGRFTISRDNAKNTVYLQMNSLKPEDTAVYYCAAAQRELPTVRRNYWGQGTQVTVSS | high polyreactivity |
| QVQLVESGGGLVQAGGSLRLSCAASGSTFSTYAMGWSRLAPGKERELVATISKRGGSTYYADSVKGRFTISRDNAKNTVYLQMNSLKPEDTAVYYCAARWQWLNGYYYWGQGTQVTVSS | high polyreactivity |
